According to patent US12583908B2, “Albumin protein variants, production thereof and uses of same” (Yeda Research and Development Co. Ltd., priority 2022, dated 2026):
Entries after “also recorded” stand apart in the source; their conditions may differ.

Columns and labels:
[1] = Thermal stability by nanoDSF; type: physicochemical; details: His-tagged variants and commercial WT; 20 to 95° C. at 1° C./min
Experimental: (§1) Thermal stability measurements. Thermal stability of BSA and HSA variants (His-tagged form) and of commercial WT HSA and BSA (Sigma-Aldrich A1653 and A7638, respectively) was measured by nanoscale differential scanning fluorimetry (nanoDSF), in Prometheus NT.48 instrument (NanoTemper). The temperature was increased from 20° C. to 95° C. at 1° C./min ramp. Thermal stability of HSA variants was also measured by differential scanning calorimetry (DCS) in VP-DSC instrument (Malvern), with heating from 20° C. to 95° C. at 1° C./min and cooling at the same rate.

[2] = Thermal stability by differential scanning calorimetry (DSC); type: physicochemical
Experimental: as §1

[3] = tested on: HEK293T cells; assay: HEK293T cell culture with albumin variants; type: cell-based, human; details: 1 mg/ml albumin, medium with 5% FBS, 5 days
Experimental: HEK293T adherent cells were grown in DMEM supplemented with GlutaMAX, NEAA and 5% FBS (all from Gibco) at 37° C., 5% CO2. To test the viability of the cultured cells in the presence of PROSS BSA2, HSA1 and HSA3 in comparison to the commercial BSA or HSA, respectively, cells (˜3×10^3) were seeded in 24-well plate and followed each day for 5 days. All the albumin variants were added to the cells at 1 mg/ml in duplicates, and their effect was analyzed. As a control, no protein was added to the growth medium. In each time point, cells were collected and the number of total cells, live cells and % of viable cells were determined automatically using Brightfield Cell Counter DeNovix.

[4] = tested on: BsiEI; assay: DNA restriction of pET28b(+) with BsiEI in albumin-containing buffer; type: biochemical; details: 0.1 mg/ml albumin, 60-80° C., 15 min
Experimental: Samples of pET28b(+) vector (1.5 μg) were restricted by BsiEI (10U, NEB) in 15 μl reaction volumes containing the Cutsmart buffer (NEB) or a reconstituted equivalent (50 mM Potassium acetate, 20 mM Tris-acetate, Mg-acetate, pH 7.9) supplemented with 0.lmg/ml of either commercial BSA (Sigma), HSA1, BSA2, or HSA3 variants (tagless, after gel filtration and ion exchange purification) at temperatures of 60-80° C. for 15 min using a gradient PCR (SensoQuest). Samples were then supplemented with 5 μl DNA sample buffer (150 mM TrisHCl pH 7.4, 5% SDS, 50% Glycerol, 0.05% Bromophenol Blue), heated (60° C., 10 min), and resolved on a 2% agarose-TAE gel containing 0.5 μg/mL Ethidium Bromide for 1.5h at 120V.

[5] = tested on: NcoI and XhoI enzymes; assay: DNA restriction of pET29b with NcoI and XhoI in albumin-containing buffer; type: biochemical; details: 0.1 mg/ml albumin, overnight at 37° C.
Experimental: DNA Restriction. pET29b vector with 900 bp insert was restricted with NcoI and XhoI enzymes (NEB) overnight at 37° C., using the following buffers: rCutsmart buffer (NEB, contains 0.1 mg/ml rBSA), buffer 4 (NEB, identical composition to rCutsmart buffer, but no BSA), and buffer 4 supplemented with HSA1, BSA2, and HSA3 variants (tagless, after gel filtration and ion exchange purification) at 0.1 mg/ml.

[6] = Gel filtration (size exclusion) chromatography; type: physicochemical
Experimental: At the final stage, all the variants were purified by gel filtration chromatography, using HiLoad Superdex 200 column for preps coming from large scale expression (>500 ml culture) and HiLoad Superdex 75 column for preps coming from medium scale expression (50-500 ml culture).

[7] = Crystal structure of HSA1 with warfarin, bound myristate; type: binding; details: no myristate added
Experimental: Crystallization and structure determination of HSA1 and Warfarin. Tagless HSA1 protein obtained from SUMO-HSA production was concentrated to 100 mg/ml in Tris buffer pH 7.0 and supplemented with 1 mM warfarin from 100 mM stock in DMSO. Crystals of HSA1 and warfarin were obtained using the hanging-drop vapor diffusion method with a Mosquito robot (TTP LabTech). All datasets were collected under cryogenic conditions at the European Synchrotron Radiation Facility (ESRF), Grenoble, France at beamline ID30B. The crystals were grown from 0.05 M NaCl, 10% PEG 4000 and 0.05 Tris pH=8.0. The crystals formed in the space group P1, with two monomers per asymmetric unit and diffracted to 2.0 Å resolution. The integrated reflections were scaled using the AIMLESS program (20) from the CCP4i2 program suite (21). HSA1 structure determined by molecular replacement with PHASER (22) using the structure of human serum albumin in complex with aristolochic acid (PDB code 6HSC). All steps of atomic refinement were carried out with the CCP4i2/REFMAC5 program (23) and by PHENIX.refine (24). The models were built into 2 mFobs-DFcalc, and mFobs-DFcalc maps by using the COOT program (25). The model was optimized using PDB_REDO (25, 26) and was evaluated with MOLPROBITY (27). […] Details of the refinement statistics of HSA1 and Warfarin structure are described in Table 1.

Row | Restriction performance, pET29b(+) digested with NcoI and XhoI [5] | Molecule | Melting temperature nanoDSF [1] [°C] | Thermal stability [2] | Reversibility of thermal unfolding ([2]; heating and cooling) | Melting temperature (DSC) ([2]; heating at 1° C./min) [°C] | Effect on number of HEK293T cells [3] | Effect on viability of HEK293T cells [3] | Restriction performance, pET28b(+) digested with BsiEI [4] | Oligomeric state by gel filtration [6] | Fatty-acid (myristate) binding [7]
1 | performed equally well | HSA3: most highly mutated human albumin variant, 73 mutations all over the protein (Table 2) (protein, Albumin Synthetic variant) MDAHKSEVAHRFKDLGEENFKALVLIAFAQYLQKCPFEELVKMVKEVTEFAKKCVADETAENCDKSLHTLFGDKLCQVATLRETYGEMADCCAKQDPERHECFLQHKDDNPNLPRLERPEVDVMCKAFHDNEETFLNKYLYEIARRHPYFYAPELLYFAKRYKKAFTECCQAEDKAACLLPKLDALREEGKESSAKQRYKCAILQKFGERVFKAWAIARLSQRFPKAPFEEISKLVTDLTKVHKACCHGDMLECMDDRAKLAKYICENQDSISSKLKECCEKPLLERSHCIAEVENDDKPEDLPPLAADFVESKDVCKNYAEAKDVFLARFLYEYARRHPDYSVTLLLRIAKTYEDTLEKCCKAEDPHECYAKVEEEFKKLVEETQNLIKQNCELFEKLGEYYFQNALLIRYTKKMPQVPTDTLVELTRNLGKVGSKCCKLPEEKRLPCIEDYLSIVLNQLCVLHEKTPVNDRVTKCCTESLVNRRHCFSALEVDETYVPKEFNAETFTFHADLCTLSEEERQIMKQKFLVELVKHKPKATEEQLKAVMDDFTAFVEKCCKAEDPETCFAEEGSKLIAASQAALGL | > 95 | stable beyond the boiling point | reversible temperature-dependent folding and unfolding | 100.5 | no adverse effect | no adverse effect | performed equally well |  | 
2 | performed equally well | HSA1: human serum albumin variant with 16 mutations, no surface and no binding site mutations (Table 2) (protein, Albumin Synthetic variant) MDAHKSEVAHRFKDLGEENFKALVLIAFAQYLQQCPFEDLVKMVNEVTEFAKTCVADESAENCDKSLHTLFGDKLCTVATLRETYGEMADCCAKQEPERNECFLQHKDDNPNLPRLVRPEPDVMCTAFHDNEETFLKKYLYEIARRHPYFYAPELLYFAKRYKAAFTECCQAADKAACLLPKLDELREEGKASSAKQRHKCAILQKFGERAFKAWAVARLSQRFPKAEFAEVSKLVTDLTKVHTECCHGDLLECADDRADLAKYICENQDSISSKLKECCEKPLLEKSHCIAEVENDEMPADLPSLAADFIESKDVCKNYAEAKDVFLGMFLYEYARRHPDYSVVLLLRLAKTYETTLEKCCAAADPHECYSKVFDEFKPLIEEPQNLIKQNCELFEQLGEYKFQNALLIRYTKKVPQVSTPTLVEVARNLGKVGSKCCKHPEAKRMPCAEDYLSIVLNQLCVLHEKTPVSDRVTKCCTESLVNRRPCFSALEVDETYVPKEFNAETFTFHADICTLSEEERQIKKQTALVELVKHKPKATKEQLKAVMDDFSAFVEKCCKADDKETCFAEEGKKLIAASQAALGL | 86 |  |  |  | no adverse effect | no adverse effect | performed equally well | completely monomeric | indistinguishable from the wild type; also recorded: four molecules of myristate fatty acid are present in the structure
